T1: human ABCC4 (Homo sapiens, UniProt O15439)
T1 construct: expressed in transfected cells
T1 sequence (O15439 1-1325): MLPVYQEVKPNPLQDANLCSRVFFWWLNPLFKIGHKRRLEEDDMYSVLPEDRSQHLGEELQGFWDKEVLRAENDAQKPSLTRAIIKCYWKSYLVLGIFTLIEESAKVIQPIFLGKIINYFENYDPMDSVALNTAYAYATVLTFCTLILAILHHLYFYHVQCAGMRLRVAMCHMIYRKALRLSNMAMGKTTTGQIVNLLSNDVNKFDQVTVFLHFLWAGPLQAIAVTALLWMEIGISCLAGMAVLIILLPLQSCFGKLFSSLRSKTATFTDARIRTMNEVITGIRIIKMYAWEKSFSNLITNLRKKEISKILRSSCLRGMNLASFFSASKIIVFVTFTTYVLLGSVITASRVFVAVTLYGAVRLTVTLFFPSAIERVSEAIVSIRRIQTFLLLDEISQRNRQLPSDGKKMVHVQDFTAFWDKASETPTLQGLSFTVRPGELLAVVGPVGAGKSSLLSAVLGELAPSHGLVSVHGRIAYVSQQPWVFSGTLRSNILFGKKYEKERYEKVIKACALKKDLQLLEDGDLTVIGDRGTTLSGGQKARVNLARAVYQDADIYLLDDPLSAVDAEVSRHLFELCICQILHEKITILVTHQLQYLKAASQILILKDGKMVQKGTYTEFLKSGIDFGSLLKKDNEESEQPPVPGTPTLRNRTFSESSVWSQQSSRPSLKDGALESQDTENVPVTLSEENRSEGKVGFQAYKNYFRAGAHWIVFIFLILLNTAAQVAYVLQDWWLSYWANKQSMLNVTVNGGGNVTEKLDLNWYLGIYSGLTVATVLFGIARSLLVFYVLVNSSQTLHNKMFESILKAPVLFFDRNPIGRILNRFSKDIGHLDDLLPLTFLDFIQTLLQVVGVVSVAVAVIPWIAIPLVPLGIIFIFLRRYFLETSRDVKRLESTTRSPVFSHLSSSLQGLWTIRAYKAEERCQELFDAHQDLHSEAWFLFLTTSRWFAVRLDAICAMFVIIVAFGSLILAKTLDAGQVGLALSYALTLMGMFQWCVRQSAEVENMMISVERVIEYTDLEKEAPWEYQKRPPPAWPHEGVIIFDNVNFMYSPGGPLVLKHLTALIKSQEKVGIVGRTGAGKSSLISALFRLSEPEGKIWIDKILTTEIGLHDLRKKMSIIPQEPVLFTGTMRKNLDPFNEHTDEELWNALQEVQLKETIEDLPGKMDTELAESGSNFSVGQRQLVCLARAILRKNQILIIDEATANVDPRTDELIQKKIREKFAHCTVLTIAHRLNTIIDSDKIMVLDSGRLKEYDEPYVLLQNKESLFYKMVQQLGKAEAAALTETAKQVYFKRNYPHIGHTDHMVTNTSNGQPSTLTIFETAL


How the values were obtained:
human ABCC4 [1] = molecular target: T1, human ABCC4; experiment: Flow cytometry (FACS) binding to C6 cells stably transfected to express human ABCC4 (different experiment, Table 4); conditions: for Human ABCC4 binding: C6 cells stably transfected to express human ABCC4, FACS, different experiment, Table 4
Procedure, shortened: (§1)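 Murine C6 cells stably expressing FLAG-tagged human or cynomolgus ABCC4 incubated 30 min on ice with antibodies, either 5 ug/mL or serially diluted from 100 ug/mL, in PBS+2% FBS+0.02% azide. Detection with PE anti-human IgG F(ab′)2 by flow cytometry; EC50 at half-maximal MFI; negative below background, positive >3× background.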

cynomolgus ABCC4 [2] = experiment: Flow cytometry (FACS) binding to C6 cells stably transfected to express cynomolgus ABCC4 (Table 3 study); set-up: key to Cynomolgus ABCC4 binding: Negative (−) is defined as maximum response (Rmax(MFI)) below background level; Positive (+) is defined as MFI>1000; conditions: C6 cells stably transfected to express cynomolgus ABCC4, FACS; Table 3
Procedure: (§2) Binding titration of recombinant antibodies to ABCC4 transfectants was performed by serial dilution of antibodies from about 666 nM. Diluted antibody in flow cytometry buffer was incubated with cells on ice for 30 min. After 2 washes with flow cytometry buffer, bound antibody was detected with PE-labeled F(ab′)2 fragment goat anti-human IgG (Jackson ImmunoResearch) diluted 1:200 in flow cytometry buffer and incubated with cells for 20 min on ice. After 2 washes with flow cytometry buffer fluorescence was measured on an Attune N×T flow cytometer. Data were analyzed with GraphPad Prism 8.0 software to determine EC50's.
(§3) Human embryonic kidney HEK 293T cells and murine C6 (ATCC CCL-107) were transfected with human or cynomolgus ABCC4 cDNA with C-terminal fused FLAG tag in a pMONO-hygro vector with Lipofectamine 3000 (Invitrogen #L3000001). The cells were treated with 0.2 mg/ml and 0.5 mg/ml hygromycin respectively for about 2 weeks while cultivated in DMEM and 10% FBS with 0.2 mg/ml hygromycin and 0.5 mg/ml hygromycin, respectively. The cells were washed with PBS, and stained with […] of anti-FLAG-PE after fixing and permeablization. Clones expressing ABCC4 were single-cell sorted into 200 μl DMEM with 10% FBS using a BD Aria FACS machine and cultivated in 96 well plates using standard techniques in an incubator at 37° C. and 5% CO 2. Two weeks later clones expressing high levels of ABCC4 were screened and amplified.
(§4) Antibody binding to cells was evaluated by flow cytometry. Murine C6 cells stably transfected to express human or cynomolgus ABCC4 were washed once in flow cytometry buffer (PBS+2% FBS+0.02% sodium azide), resuspended at 2×10^6 cells/mL in flow cytometry buffer, and dispensed into 96-well microtiter plates at 0.1 mL/well. Recombinant antibodies were added to cells at 5 ug/mL for initial binding confirmation, or serially diluted from 100 ug/mL in flow cytometry buffer. After incubating cells on ice for 30 min, cells were washed twice with flow cytometry buffer. Bound antibody was detected with PE-labeled F(ab′)2 fragment goat anti-human IgG (Jackson ImmunoResearch) and evaluated on an Attune N×T flow cytometer. EC50 is calculated to be the concentration of antibody that gives half maximal response.
(§5) Table 3 lists the following characteristics of the rat anti-ABCC4 antibodies tested: binding to C6 cells stably transfected to express human ABCC4 measured by FACS and binding to C6 cells stably transfected to express cynomolgus ABCC4 measured by FACS. Negative (−) is defined as maximum response (Rmax(MFI)) below background level. Positive (+) is defined as MFI>1000.

human ABCC4 [3] = molecular target: T1, human ABCC4; experiment: Flow cytometry (FACS) binding to C6 cells stably transfected to express human ABCC4 (Table 3 study); conditions: C6 cells stably transfected to express human ABCC4, FACS; Table 3
Procedure: as §2, §3, §4, §5

cynomolgus ABCC4 [4] = experiment: Flow cytometry (FACS) binding to C6 cells stably transfected to express cynomolgus ABCC4 (different experiment, different C6.cC4 cell line, Table 4); set-up: key to Cynomolgus ABCC4 binding: Negative (−)=Rmax (MFI) below background level; Positive (+)=MFI>3× background level; conditions: for Cynomolgus ABCC4 binding: different C6.cC4 cell line, C6 cells stably transfected to express cynomolgus ABCC4, FACS, Table 4
Procedure, shortened: as §1

Row | Molecule | Human ABCC4 binding (human ABCC4 [1]) | Cynomolgus ABCC4 binding (cynomolgus ABCC4 [2]) | Human ABCC4 binding (human ABCC4 [3]) | Cynomolgus ABCC4 binding (cynomolgus ABCC4 [4]) | binding to human ABCC4 expressed on cell surface (human ABCC4 [1]; Table 4 study, stated in words) | binding to cynomolgus ABCC4 expressed on cell surface (cynomolgus ABCC4 [4]; Table 4 study, stated in words)
1 | C4.985: anti-ABCC4 antibody raised in rats; VH SEQ ID NO: 14, VL SEQ ID NO: 134 (antibody, V domains shown) VH: EVQLVESGGGLVQPGRSLKLSCTASGFTFNKNWMAWIRQAPGKGLEWVASITNTGGNTYYPDSVKGRFTVSRDQTISTLYLQMNSLRSEDTATYFCTRERIGSGYYVMDAWGRGASVTVSS VL: DTVLTQSPALTVSPGERVTISCRASESVTSFMNWYQQKPGQQPKLLIYLASDLESGVPARFSGSGSGADFTLTIDPVEADDTATYYCQQSWIDPPTFGTGTKLELK | + (Positive (+)=MFI>3× background level) | − | + (Positive (+) is defined as MFI>1000) | − |  | 
2 | C4.987: anti-ABCC4 antibody raised in rats; VH SEQ ID NO: 15, VL SEQ ID NO: 135 (antibody, V domains shown) VH: EVQLVESGGGLVQPGRSMKLSCAASGFTFSNYYMAWVRQAPTKGLEWVASISTGGGNTHYRDSVKGRFTISRDNAKSTLYLQMDSLRSEETATYYCARGEDRYKGVFAYWGQGTLVTVSS VL: DVQMTQSPSNLAASPGESVSINCKASKSISKYLAWYQQKPGKANKLLIYSGSTLQSGTPSRFSGSGSGTDFTLTIRNLEPEDFGLYYCQHHNEYPPTFGAGTKLELK | + (Positive (+)=MFI>3× background level) | − | + (Positive (+) is defined as MFI>1000) | − |  | 
3 | C4.884: anti-ABCC4 antibody raised in rats; VH SEQ ID NO: 1, VL SEQ ID NO: 124 (antibody, V domains shown) VH: EVQLVESGPGLVQPSQTLSLTCTVSGFSLTSNSVHWVRQPPGKGLEWIGAIWSGGSTDYNSALKSRLSISRDTSKSQVFLKMNSLQTEDTAIYFCTGLIFPYWGQGASVTVSS VL: DVVMTQTPSILSGTLGRSVSISCRSSQSLLDSDGTTYLYWFLQRPGQSPQRLIYLVSNLGSGVPNRFSGSGSGTDFTLKISGVEAEDLGVYYCMQATHVPFTFGSGTKLEIK | + (Positive (+)=MFI>3× background level) | − | + (Positive (+) is defined as MFI>1000) | − |  | 
4 | C4.1000: anti-ABCC4 antibody raised in rats; VH SEQ ID NO: 18, VL SEQ ID NO: 138 (antibody, V domains shown) VH: QVQLTESGPGLVQPSQTLSLTCTISGFSLTSYGVSWVRQPPGKGLEWIGAIWSGGGTNYDSALKSRLSISRDTSKSQVLLKMNSLQTEDTAMYFCASGDWFAYWGQGTLVTVSS VL: DIQMTQSPPSLSASLGDKVTITCQASQNINKYIAWFQQKPGKAPRLLIRYTSTLESGTPSRFSGSGSGRDYSFSISTVESEDIASYYCLQYVNLYTFGAGTKLELK | + (Positive (+)=MFI>3× background level) | − | + (Positive (+) is defined as MFI>1000) | − |  | 
5 | C4.947: anti-ABCC4 antibody raised in rats; VH SEQ ID NO: 5, VL SEQ ID NO: 128 (antibody, V domains shown) VH: EVKLVESGGGLVQPGGSMRLSCAASGFTFTDFYMNWIRQPAGKAPEWLGFIRNKANAYTTAYNPSVKGRFTISRDNAQNMLYLQMNTLRAEDTATYYCARSNYGFDYWGQGVMVTVSS VL: DVAMTQTPPSLSVAIGQSVSISCKSSQSLVYSDGKTYLHWLLQSSGRSPKRLIYQVSNLDSGVPDRFSGTGSQKDFTLKISRVEAKDLGVYYCAQTTHFPFTFGSGTKLEIK | + (Positive (+)=MFI>3× background level) | − | + (Positive (+) is defined as MFI>1000) | − |  | 
6 | C4.991: anti-ABCC4 antibody raised in rats; VH SEQ ID NO: 16, VL SEQ ID NO: 136 (antibody, V domains shown) VH: EVKLVESGGGLVQPGRSLQVSCVASGFIFTDYYMAWVRQAPTKGLEWVAYINYDGGSTYYGDSVKGRFTISRDNAKSTLYLQMNSLRSEDMATYYCARRDYGSKFDNWGQGTLVTVSS VL: DIVMTQSPSLLSASVGDRVTLTCKGSQNINNFLAWYQQKRGEAPKLLIYKTNSLHTGIPSRFSGSGSGTEYTLTISSLHSEDLATYYCYQYNNGYTFGAGTKLELK | + (Positive (+)=MFI>3× background level) | − | + (Positive (+) is defined as MFI>1000) | − |  | 
7 | C4.972: anti-ABCC4 antibody raised in rats; VH SEQ ID NO: 11, VL SEQ ID NO: 132 (antibody, V domains shown) VH: EVQLKESGPGLVQPSETLSLTCTVSGFSLTSYNVHWVRQPPGKGLEWMGVMWSGGSTDYSSALKSRLSISRDTSKNQVFLKMNSLQSEDTTTYYCARDRGGYYYDGYPHDFVYWGQGVMVTVSS VL: EIVIIQSPALAVSLGQRATISCKTNQNVDYYGNSYIHWYQQKPGQQPKLLIYLASNLASGIPARFSGRGSGTDFTLTIDPVEADDPATYYCQQSRNLPFTFGSGTKLELK | + (Positive (+)=MFI>3× background level) | − | + (Positive (+) is defined as MFI>1000) | + (Positive (+)=MFI>3× background level) | bind to both human and cynomolgus ABCC4 | bind to both human and cynomolgus ABCC4

— US20240010747A1, “ANTI-MRP4 (ENCODED BY ABCC4 GENE) ANTIBODIES AND USES THEREOF” (Kenjockety Biotechnology, Inc., priority 2020, published 2024)
